One block for each binder: values may come before it. Where no end group is shown, it is not given here.
Experiments:
Details in all cases: both partners purified
[1] = biological target: T1, ZZZ3 ZZ domain (aa 816–874) (human, UniProt Q8IYH5 816-874); assay: NMR structure; solution structure; 2 mM 13C/15N-labeled ZZZ3 (816–874) with 10 mM H3 (1–12) or 4 mM H3K4ac (1–8); 298 K; 20 mM Tris–HCl pH 7.0, 100 mM NaCl, 5 mM DTT
T1 construct: 13C/15N isotope-labelled sample for the NMR structures
T1 sequence (looked up): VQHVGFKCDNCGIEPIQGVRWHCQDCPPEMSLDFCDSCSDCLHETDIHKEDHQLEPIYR

[2] = biological target: T2, GST-ZZZ3 ZZ domain (amino acids 800–903) (human, UniProt Q8IYH5 800-903); assay: pull-down; peptide pulldown: 1 µg biotinylated histone peptide with 1–2 µg GST-fused protein in 50 mM Tris–HCl 7.5, 300 mM NaCl, 0.1% NP-40, overnight; streptavidin beads; western blot
T2 construct: ZZ-type zinc finger domain of human ZZZ3, amino acids 800–903, in pGEX-6P1; also called GST-fused ZZZ3 ZZ; source: E. coli BL21 (DE3) RIL, purified (glutathione Sepharose 4B)
T2 sequence (looked up): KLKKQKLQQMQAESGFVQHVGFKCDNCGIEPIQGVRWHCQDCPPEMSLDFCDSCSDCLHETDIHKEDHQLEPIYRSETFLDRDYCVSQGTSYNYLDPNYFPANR

[3] = biological target: T3, ZZZ3 ZZ domain (aa 800–903), GST cleaved (human, UniProt Q8IYH5 800-903); assay: MST; displacement assay: unlabeled peptide added to a preformed complex of 5 μM ZZ (aa 800–903) and 80 nM C-terminal fluorescein-labeled H3 (1–12); 20 mM Tris–HCl pH 7.0, 150 mM NaCl, 3 mM DTT
T3 construct: ZZ domain of human ZZZ3, aa 800–903; also called WT ZZZ3 ZZ; source: E. coli BL21 (DE3) RIL, purified (glutathione Sepharose, PreScission cleavage, size-exclusion chromatography)
T3 sequence (looked up): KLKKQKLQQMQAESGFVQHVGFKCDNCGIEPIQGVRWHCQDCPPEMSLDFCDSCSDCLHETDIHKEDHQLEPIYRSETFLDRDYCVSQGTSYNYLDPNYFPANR

B1: H3K4ac peptide (aa 1–8) (peptide, UniProt P68431 2-9, looked up)
peptide: ARTK(Ac)QTAR
notes: histone H3, aa 1–8; also called H3K4ac (1–8); source: synthetic peptide
binding result [1]: binds

B4: H3K4ac (1–12) peptide, unlabeled (peptide, UniProt P68431 2-13, looked up)
peptide: ARTK(Ac)QTARKSTG
notes: histone H3, aa 1–12; source: synthetic peptide
fold enhancement of binding over the unmodified H3 peptide [3]: 3 fold

Other lines, results leading:

binding result [2]: binds
B2: histone H3 peptide of the N-terminal eight amino acids, biotinylated (peptide, UniProt P68431 2-9, looked up)
peptide: ARTKQTAR
modifications: also: biotinylated, position not given here
notes: histone H3, N-terminal eight amino acids; also called The N-terminal eight amino acids of H3; source: synthetic peptide (CPC and Scilight Biotechnology)

binding result [3]: binds | binding result [1]: binds
B3: unmodified histone H3 tail peptide (aa 1–12) (peptide, UniProt P68431 2-13, looked up)
peptide: ARTKQTARKSTG
notes: histone H3, aa 1–12; also called H3 (1–12); H3 peptide; source: synthetic peptide
